Results: the supplement of paper PMC9112550, “Optimization of the antimicrobial peptide Bac7 by deep mutational scanning” (BMC Biology, 2022)

Tested on: Escherichia coli TOP10
Experiment: shrunken log2 fold change of peptide-encoding DNA abundance (4.5 h post-induction vs induction); higher = less antimicrobial activity (less host growth inhibition)
Conditions: time post-induction: 4.5 h; library: site-saturation at positions 5, 18, 19, 20
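Also: peptides expressed intracellularly from a pBAD plasmid library in pooled LB shake-flask culture, induced with 0.3% L-arabinose, DNA abundance read by NGS, three biological replicates, DESeq2 with apeglm shrinkage.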

Sequence	shrunken log2 fold change
RRIRSRPPRLPRPRPRPWQRPRP	0.074
RRIRSRPPRLPRPRPRPWRWPRP	0.124
RRIRSRPPRLPRPRPRPWTKPRP	-0.137
RRIRSRPPRLPRPRPRPWWFPRP	0.0202
RRIRSRPPRLPRPRPRPWWHPRP	-0.166
RRIRSRPPRLPRPRPRPWYIPRP	-0.314
RRIRSRPPRLPRPRPRPYAEPRP	-0.235
RRIRSRPPRLPRPRPRPYCGPRP	-0.726
RRIRSRPPRLPRPRPRPYFPPRP	-0.694
RRIRSRPPRLPRPRPRPYGGPRP	-0.608
RRIRSRPPRLPRPRPRPYIQPRP	-1.18
RRIRSRPPRLPRPRPRPYKRPRP	-0.618
RRIRSRPPRLPRPRPRPYKTPRP	-0.0144
RRIRSRPPRLPRPRPRPYLGPRP	-0.204
RRIRSRPPRLPRPRPRPYLVPRP	-0.123
RRIRSRPPRLPRPRPRPYMDPRP	-0.326
RRIRSRPPRLPRPRPRPYMLPRP	-0.981
RRIRSRPPRLPRPRPRPYMPPRP	-1.04
RRIRSRPPRLPRPRPRPYMVPRP	-0.497
RRIRSRPPRLPRPRPRPYPAPRP	-0.559
RRIRSRPPRLPRPRPRPYQCPRP	-0.00419
RRIRSRPPRLPRPRPRPYWDPRP	-0.321
RRIRSRPPRLPRPRPRPYWLPRP	-0.248
RRIRSRPPRLPRPRPRPYYAPRP	-0.551
RRIRSRPPRLPRPRPRPYYVPRP	-0.274

Sequence	shrunken log2 fold change
RRIRTRPPRLPRPRPRPAAGPRP	0.375
RRIRTRPPRLPRPRPRPAAYPRP	-0.000154
RRIRTRPPRLPRPRPRPADKPRP	-0.257
RRIRTRPPRLPRPRPRPAEAPRP	0.148
RRIRTRPPRLPRPRPRPAEQPRP	0.0493
RRIRTRPPRLPRPRPRPAIHPRP	-0.384
RRIRTRPPRLPRPRPRPAIPPRP	-0.212
RRIRTRPPRLPRPRPRPAISPRP	0.09
RRIRTRPPRLPRPRPRPAKFPRP	-0.00176
RRIRTRPPRLPRPRPRPAMKPRP	-0.125
RRIRTRPPRLPRPRPRPANEPRP	-0.226
RRIRTRPPRLPRPRPRPANMPRP	-0.291
RRIRTRPPRLPRPRPRPANQPRP	-0.102
RRIRTRPPRLPRPRPRPANSPRP	-0.119
RRIRTRPPRLPRPRPRPANYPRP	-0.145
RRIRTRPPRLPRPRPRPAPSPRP	0.231
RRIRTRPPRLPRPRPRPAQYPRP	0.105
RRIRTRPPRLPRPRPRPARAPRP	0.786
RRIRTRPPRLPRPRPRPATHPRP	-0.152
RRIRTRPPRLPRPRPRPATVPRP	0.0426
RRIRTRPPRLPRPRPRPAWLPRP	-0.0636
RRIRTRPPRLPRPRPRPAWRPRP	0.594
RRIRTRPPRLPRPRPRPAYKPRP	0.0328
RRIRTRPPRLPRPRPRPAYPPRP	-0.072
RRIRTRPPRLPRPRPRPAYVPRP	-0.27

Sequence	shrunken log2 fold change
RRIRTRPPRLPRPRPRPCAAPRP	0.0451
RRIRTRPPRLPRPRPRPCCPPRP	-0.305
RRIRTRPPRLPRPRPRPCFEPRP	-0.0858
RRIRTRPPRLPRPRPRPCHCPRP	-1.43
RRIRTRPPRLPRPRPRPCHHPRP	-0.0688
RRIRTRPPRLPRPRPRPCIEPRP	-0.183
RRIRTRPPRLPRPRPRPCIWPRP	-0.0258
RRIRTRPPRLPRPRPRPCMDPRP	-0.459
RRIRTRPPRLPRPRPRPCNDPRP	-0.145
RRIRTRPPRLPRPRPRPCPAPRP	0.115
RRIRTRPPRLPRPRPRPCRSPRP	-0.0198
RRIRTRPPRLPRPRPRPCRVPRP	-0.346
RRIRTRPPRLPRPRPRPCRYPRP	0.0413
RRIRTRPPRLPRPRPRPCSKPRP	-0.074
RRIRTRPPRLPRPRPRPCTHPRP	-0.0873
RRIRTRPPRLPRPRPRPCTIPRP	-0.456
RRIRTRPPRLPRPRPRPCTSPRP	-0.137
RRIRTRPPRLPRPRPRPCYNPRP	-0.645
RRIRTRPPRLPRPRPRPCYTPRP	-0.0244
RRIRTRPPRLPRPRPRPDAIPRP	-0.141
RRIRTRPPRLPRPRPRPDFRPRP	0.0337
RRIRTRPPRLPRPRPRPDGCPRP	0.127
RRIRTRPPRLPRPRPRPDGIPRP	-0.00822
RRIRTRPPRLPRPRPRPDGLPRP	0.0665
RRIRTRPPRLPRPRPRPDIGPRP	-0.187

Sequence	shrunken log2 fold change
RRIRTRPPRLPRPRPRPDKHPRP	-0.551
RRIRTRPPRLPRPRPRPDKLPRP	0.0136
RRIRTRPPRLPRPRPRPDMRPRP	-0.025
RRIRTRPPRLPRPRPRPDMVPRP	-0.00822
RRIRTRPPRLPRPRPRPDNRPRP	-0.0132
RRIRTRPPRLPRPRPRPDPGPRP	0.0486
RRIRTRPPRLPRPRPRPDPSPRP	-0.0208
RRIRTRPPRLPRPRPRPDQDPRP	-0.0328
RRIRTRPPRLPRPRPRPDQVPRP	-0.272
RRIRTRPPRLPRPRPRPDSKPRP	0.0427
RRIRTRPPRLPRPRPRPDSMPRP	0.0768
RRIRTRPPRLPRPRPRPDVHPRP	1.16
RRIRTRPPRLPRPRPRPDVIPRP	-0.0157
RRIRTRPPRLPRPRPRPDVRPRP	-0.31
RRIRTRPPRLPRPRPRPDWCPRP	-0.0271
RRIRTRPPRLPRPRPRPDYCPRP	-0.125
RRIRTRPPRLPRPRPRPDYHPRP	-0.699
RRIRTRPPRLPRPRPRPDYMPRP	-0.687
RRIRTRPPRLPRPRPRPDYQPRP	-0.0545
RRIRTRPPRLPRPRPRPEACPRP	-0.1
RRIRTRPPRLPRPRPRPEAWPRP	0.178
RRIRTRPPRLPRPRPRPECCPRP	0.348
RRIRTRPPRLPRPRPRPEDVPRP	-0.0588
RRIRTRPPRLPRPRPRPEFKPRP	0.0563
RRIRTRPPRLPRPRPRPEGCPRP	0.214

Sequence	shrunken log2 fold change
RRIRTRPPRLPRPRPRPEGLPRP	0.0624
RRIRTRPPRLPRPRPRPEHQPRP	0.127
RRIRTRPPRLPRPRPRPEIQPRP	-0.00275
RRIRTRPPRLPRPRPRPEITPRP	-0.0572
RRIRTRPPRLPRPRPRPEKEPRP	0.0172
RRIRTRPPRLPRPRPRPEKYPRP	-0.156
RRIRTRPPRLPRPRPRPELDPRP	0.641
RRIRTRPPRLPRPRPRPEMAPRP	0.484
RRIRTRPPRLPRPRPRPEMPPRP	-0.0682
RRIRTRPPRLPRPRPRPENGPRP	0.0885
RRIRTRPPRLPRPRPRPEPFPRP	0.0259
RRIRTRPPRLPRPRPRPEQCPRP	-0.01
RRIRTRPPRLPRPRPRPERPPRP	0.267
RRIRTRPPRLPRPRPRPESFPRP	-0.47
RRIRTRPPRLPRPRPRPESHPRP	-0.164
RRIRTRPPRLPRPRPRPESTPRP	-0.0383
RRIRTRPPRLPRPRPRPETFPRP	-0.4
RRIRTRPPRLPRPRPRPETMPRP	0.338
RRIRTRPPRLPRPRPRPEYNPRP	-0.395
RRIRTRPPRLPRPRPRPFACPRP	-0.198
RRIRTRPPRLPRPRPRPFDCPRP	-0.748
RRIRTRPPRLPRPRPRPFDMPRP	-0.00208
RRIRTRPPRLPRPRPRPFDSPRP	-0.258
RRIRTRPPRLPRPRPRPFFIPRP	-0.518
RRIRTRPPRLPRPRPRPFGDPRP	0.0755

Sequence	shrunken log2 fold change
RRIRTRPPRLPRPRPRPFHCPRP	-0.179
RRIRTRPPRLPRPRPRPFHFPRP	-0.303
RRIRTRPPRLPRPRPRPFHLPRP	-0.0758
RRIRTRPPRLPRPRPRPFILPRP	-0.276
RRIRTRPPRLPRPRPRPFIVPRP	-0.265
RRIRTRPPRLPRPRPRPFMMPRP	-0.203
RRIRTRPPRLPRPRPRPFNIPRP	-0.333
RRIRTRPPRLPRPRPRPFNKPRP	0.0555
RRIRTRPPRLPRPRPRPFNTPRP	-0.0686
RRIRTRPPRLPRPRPRPFPAPRP	0.299
RRIRTRPPRLPRPRPRPFPEPRP	-0.41
RRIRTRPPRLPRPRPRPFPPPRP	-0.0137
RRIRTRPPRLPRPRPRPFQLPRP	-0.138
RRIRTRPPRLPRPRPRPFQNPRP	0.0326
RRIRTRPPRLPRPRPRPFREPRP	-0.0376
RRIRTRPPRLPRPRPRPFRYPRP	-0.0915
RRIRTRPPRLPRPRPRPFSSPRP	-0.399
RRIRTRPPRLPRPRPRPFTGPRP	-0.12
RRIRTRPPRLPRPRPRPFWAPRP	0.346
RRIRTRPPRLPRPRPRPFWEPRP	1.78
RRIRTRPPRLPRPRPRPFWHPRP	0.23
RRIRTRPPRLPRPRPRPFYTPRP	-0.373
RRIRTRPPRLPRPRPRPGAPPRP	0.479
RRIRTRPPRLPRPRPRPGCYPRP	-0.115
RRIRTRPPRLPRPRPRPGFMPRP	-0.0526
